Assay results published in US7960513B2, “Antibody against a human ADAM protease” (Monash University, priority 2004, dated 2011).

Biological target: T1, EphA3 (Homo sapiens, UniProt P29320)
T1 construct: expressed in transfected cells
T1 sequence (P29320 21-983): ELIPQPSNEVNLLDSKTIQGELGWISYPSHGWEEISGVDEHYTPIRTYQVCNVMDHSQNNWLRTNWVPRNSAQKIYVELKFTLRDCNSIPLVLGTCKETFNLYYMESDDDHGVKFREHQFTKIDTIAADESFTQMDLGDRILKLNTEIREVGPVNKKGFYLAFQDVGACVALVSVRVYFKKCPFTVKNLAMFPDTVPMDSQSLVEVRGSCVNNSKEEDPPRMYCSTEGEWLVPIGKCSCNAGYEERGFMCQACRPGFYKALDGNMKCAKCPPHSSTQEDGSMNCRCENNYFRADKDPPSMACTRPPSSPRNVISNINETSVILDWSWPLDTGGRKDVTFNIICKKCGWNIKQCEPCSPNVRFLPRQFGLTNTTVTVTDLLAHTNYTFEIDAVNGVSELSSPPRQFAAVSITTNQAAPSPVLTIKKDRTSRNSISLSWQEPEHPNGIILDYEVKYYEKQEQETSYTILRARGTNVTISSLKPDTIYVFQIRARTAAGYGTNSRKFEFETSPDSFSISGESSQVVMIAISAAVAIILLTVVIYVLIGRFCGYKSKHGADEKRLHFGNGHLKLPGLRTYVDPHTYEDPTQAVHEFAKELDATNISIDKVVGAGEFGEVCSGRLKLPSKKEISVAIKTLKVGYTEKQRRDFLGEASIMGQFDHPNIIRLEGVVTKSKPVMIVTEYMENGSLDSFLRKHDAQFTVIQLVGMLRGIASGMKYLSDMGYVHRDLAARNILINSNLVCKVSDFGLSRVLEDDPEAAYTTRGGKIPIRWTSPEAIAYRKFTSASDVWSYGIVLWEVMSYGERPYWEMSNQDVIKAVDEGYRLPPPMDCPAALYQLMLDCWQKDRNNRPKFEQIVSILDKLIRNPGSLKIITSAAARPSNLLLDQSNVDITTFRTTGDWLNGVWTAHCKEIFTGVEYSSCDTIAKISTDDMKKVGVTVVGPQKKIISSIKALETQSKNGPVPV
Assay: Co-immunoprecipitation from transfected cells, Western blot
Type: cell-based
Conditions: EphA3/293 cells, EEE-A substituted construct
Experimental: FIG. 1. EphA3-ADAM10 association, ephrin-A5 cleavage and ephrin internalisation. • A. Association of ADAM10 with EphA3 in LiBr melanoma cells and parental or stably transfected EphA3/HEK293 cells. The cells were treated with clustered ephrin-Fc (A5 or A2) or were left untreated (−) prior to lysis. Anti-EphA3 immunoprecipitates from lysates were analysed by Western blot for endogenous ADAM10 (“p” and “m” indicate the pro (unprocessed) and mature (processed) forms of ADAM10). Aliquots from immunoprecipitates were blotted for EphA3 levels to indicate loading (lower panel). […] EphA3/HEK293 or ephrin-A5/HEK293 cells were transfected to express HA-tagged ADAM10ΔPM. Western Blots of anti-HA immuno-precipitates were analysed with antibodies against ephrin-A5 and EphA3, parallel control samples with anti-ADAM10 antibodies. Lysates of ephrin-A5/HEK 293 cells were also extracted with Protein-A Sepharose-bound EphA3 Fc and analysed with anti-ephrin-A5 antibodies. • C. […] Pooled cell lysates and supernatants were pre-cleared with excess Protein-A Sepharose, cleaved ephrin-A5 was extracted using EphA3-Fc coupled to Protein-A Sepharose and analysed by anti-ephrin-A5 immuno-blot. Recombinant, monomeric, single-chain ephrin-A5 (Himanen et al., 2004, Nat Neurosci. 7 501-9; ephrin std) was analysed in parallel. • D. Ephrin-A5 cleavage and internalisation are inhibited by dominant-negative ADAM10. […]

B1: ADAM10Δpro: cell-surface ADAM10Δpro incorporating the EEE-A amino acid substitutions (protein)
chain: SGQPICGNGMVEQGEECDCGYSDQCKDDCCFDANQPEGKKCKLKPGKQCSPSQGPCCTAQCAFKSKSEKCRDDSDCAKEGICNGFTALCPASDPKPNFTDCNRHTQVCINGQCAGSICAKYDLAACTCASSDGKDDKELCHVCCMKKMAPSTCASTGSLQWSKQFSGRTITLQPGSPCNDFRGYCDVFMRCRLVDADGPLARLKKAIFSPQLYENIAEWIVAHWWAVLLMGIALIMLMAGFIKICSVHTPSSNPKLPPPKPLPGTLKRRRPPQPIQQPPRQRPRESYQMGHMRR
modifications: left off: small tags and cut ends
notes: cell-surface ADAM10Δpro incorporating the EEE-A amino acid substitutions
ephrin-independent constitutive association with EphA3: remained unchanged
